Results on two compounds are retold here after publication PMC4147340, “Mode and specificity of binding of the small molecule GANT61 to GLI determines inhibition of GLI-DNA binding” (Oncotarget, 2014).

Data set [1] relates to GLI1 (full length, GLI1-WT). Description: SPR. Particulars: Biacore 3000, HBS-P buffer, 20 ul/min, 3 min association, 5 min dissociation; pH, salt and temperature not stated. A general note: Surface plasmon resonance follows binding to a sensor surface in real time, without labels.
Data set [2] relates to GLI1 (full length, GLI1-WT). Nature of the data set: SPR inhibition. The settings on record: Biacore 3000, HBS-P buffer, 20 ul/min, 3 min association, 5 min dissociation; pH, salt and temperature not stated.
The next data set addresses T1, GLI1 (ΔGLI-DM) (Homo sapiens, UniProt P08151, E250A/E298A).
T1 sequence (P08151 234-388 E250A/E298A limits assumed): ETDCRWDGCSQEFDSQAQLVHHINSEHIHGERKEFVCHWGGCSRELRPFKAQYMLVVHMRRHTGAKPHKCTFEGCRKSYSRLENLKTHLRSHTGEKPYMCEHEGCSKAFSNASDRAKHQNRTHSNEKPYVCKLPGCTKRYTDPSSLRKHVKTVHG
Description: SPR, ΔGLI-DM immobilized on Ni-NTA chip, GANT61 […] as analyte. Format: binding.

Another data set addresses T2, GLI1 (Homo sapiens, UniProt P08151).
T2 construct: Full length GLI1 (OriGene)
T2 sequence (P08151 1-1106): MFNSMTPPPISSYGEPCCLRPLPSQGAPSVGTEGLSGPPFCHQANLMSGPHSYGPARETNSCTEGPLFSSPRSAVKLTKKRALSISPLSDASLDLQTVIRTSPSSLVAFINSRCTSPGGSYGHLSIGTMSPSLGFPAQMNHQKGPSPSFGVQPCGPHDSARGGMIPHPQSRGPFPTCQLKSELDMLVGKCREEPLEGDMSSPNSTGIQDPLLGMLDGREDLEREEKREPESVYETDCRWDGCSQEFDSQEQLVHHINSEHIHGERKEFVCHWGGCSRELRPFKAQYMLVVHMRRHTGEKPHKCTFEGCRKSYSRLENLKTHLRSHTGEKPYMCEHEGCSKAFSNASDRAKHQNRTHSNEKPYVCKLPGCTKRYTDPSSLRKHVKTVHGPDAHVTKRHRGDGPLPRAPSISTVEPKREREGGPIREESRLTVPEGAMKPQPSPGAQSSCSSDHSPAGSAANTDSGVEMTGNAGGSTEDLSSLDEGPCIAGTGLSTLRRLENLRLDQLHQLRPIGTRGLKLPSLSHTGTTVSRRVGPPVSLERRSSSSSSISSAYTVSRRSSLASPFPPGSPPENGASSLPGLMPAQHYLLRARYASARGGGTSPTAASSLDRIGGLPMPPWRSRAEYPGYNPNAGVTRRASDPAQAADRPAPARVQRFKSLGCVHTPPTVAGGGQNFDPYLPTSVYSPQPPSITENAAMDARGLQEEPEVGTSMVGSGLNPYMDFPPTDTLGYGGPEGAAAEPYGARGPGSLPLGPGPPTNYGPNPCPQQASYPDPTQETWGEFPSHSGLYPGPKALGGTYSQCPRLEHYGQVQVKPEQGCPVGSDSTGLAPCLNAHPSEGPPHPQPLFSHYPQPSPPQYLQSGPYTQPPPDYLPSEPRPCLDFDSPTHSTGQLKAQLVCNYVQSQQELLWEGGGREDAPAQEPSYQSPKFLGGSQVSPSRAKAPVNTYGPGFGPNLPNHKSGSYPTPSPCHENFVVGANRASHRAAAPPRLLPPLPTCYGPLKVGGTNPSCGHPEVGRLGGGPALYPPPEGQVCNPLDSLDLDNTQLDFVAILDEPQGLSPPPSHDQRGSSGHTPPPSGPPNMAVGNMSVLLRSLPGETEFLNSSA
Description: SPR (Biacore […]), GLI1 immobilized on CM5 chip, GANT61 […] as analyte. Format: binding.

One may read the Kd as a measure of binding affinity in units of concentration. On to “biotinylated GLI1 DNA-binding sequence (21-mer)”, for which the Kd in data set [1] was 5.5 µM. Also, the K half in data set [2] worked out at 3.2 µM.

For the compound `CN(C)c1ccccc1CN1CCCN(Cc2ccccc2N(C)C)C1c1ccncc1` [GANT61], the Kd at GLI1 (ΔGLI-DM) was 26.1 µM; on GLI1 it was 7.5 µM.
